Assay results published in patent US20220169720.

Assays:
[1] = tested on: Rubicon (RUN domain protein as Beclin-1 interacting and cysteine-rich containing), wild-type
[2] = tested on: Rubicon mutant's 117-189 amino acids (phosphor-null mutants, single serine/threonine substituted with alanine)

Sequence of Rubicon (RUN domain protein as Beclin-1 interacting and cysteine-rich containing), wild-type (chain, as listed by the source): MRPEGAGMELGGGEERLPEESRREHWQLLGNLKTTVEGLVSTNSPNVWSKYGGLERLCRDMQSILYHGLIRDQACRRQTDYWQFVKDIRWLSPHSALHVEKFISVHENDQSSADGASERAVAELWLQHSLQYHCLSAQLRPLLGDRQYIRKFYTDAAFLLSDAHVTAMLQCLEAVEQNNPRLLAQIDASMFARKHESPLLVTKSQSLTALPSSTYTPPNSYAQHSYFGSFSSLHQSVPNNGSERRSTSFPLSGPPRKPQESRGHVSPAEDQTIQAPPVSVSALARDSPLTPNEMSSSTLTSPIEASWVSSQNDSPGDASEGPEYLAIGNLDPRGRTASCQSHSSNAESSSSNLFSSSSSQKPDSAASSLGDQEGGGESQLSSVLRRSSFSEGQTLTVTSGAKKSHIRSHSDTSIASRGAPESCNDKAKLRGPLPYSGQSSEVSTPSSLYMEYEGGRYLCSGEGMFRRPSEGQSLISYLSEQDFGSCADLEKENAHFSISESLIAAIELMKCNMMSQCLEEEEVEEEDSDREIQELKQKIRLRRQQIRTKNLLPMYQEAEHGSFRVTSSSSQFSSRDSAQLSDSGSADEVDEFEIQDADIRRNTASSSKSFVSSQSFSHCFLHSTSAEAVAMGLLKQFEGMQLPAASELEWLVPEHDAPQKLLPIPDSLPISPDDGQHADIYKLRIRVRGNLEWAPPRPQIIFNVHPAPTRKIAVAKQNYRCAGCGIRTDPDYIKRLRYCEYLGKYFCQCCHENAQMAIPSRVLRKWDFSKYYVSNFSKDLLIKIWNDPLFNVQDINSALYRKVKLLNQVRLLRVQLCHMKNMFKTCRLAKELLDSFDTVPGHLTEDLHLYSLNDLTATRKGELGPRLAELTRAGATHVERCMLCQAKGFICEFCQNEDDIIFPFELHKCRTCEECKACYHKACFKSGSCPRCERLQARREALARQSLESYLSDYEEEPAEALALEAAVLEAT

For mutant LRRK2-G2019S, the “pT166-Rubicon by ELISA in human neurons transiently over-expressing mutant LRRK2-G2019S” value [1] was 12% and 26% increase in pT166-Rubicon respectively compared to control.

For “Leucine-rich repeat kinase 2 (LRRK2), wild-type”, the “extent of Rubicon phosphorylation by LRRK2 kinase (kinase assay with wild-type or phosphor-null mutant Rubicon as substrate)” value [1] was “determined T166 and S189 as the consensus LRRK2-specific phosphosites”, the “pT166-Rubicon by ELISA in human neurons transiently over-expressing wild-type (WT) LRRK2” value [1] was 12% and 26% increase in pT166-Rubicon respectively compared to control and the “pT166-Rubicon by ELISA in human neurons with endogenous LRRK2 knocked down” value [1] was 32.4% decrease in pT166-Rubicon compared to control. For the same substance, the “amount of generated ADP as a by-product of LRRK2 kinase activity” value [2] was “Rubicon mutant's 117-189 amino acids significantly decreased LRRK2 kinase activity”.
